Measurements taken from article PMC9063849, “Crystal structure of the middle and C-terminal domains of Hsp90α labeled with a coumarin derivative reveals a potential allosteric binding site as a drug target” (Acta Crystallographica. Section D, Structural Biology, 2022).

Experiments:
[1] = target: the molecule itself; experiment: SEC; size-exclusion chromatography of the purified protein, 20 mM HEPES Na pH 7.2, 150 mM NaCl
[2] = target: the molecule itself; experiment: dynamic light scattering; 3 mg/ml Hsp90αMC in 20 mM HEPES pH 7.2, 150 mM NaCl, 25°C; without or with 0.5 mM inhibitors (chlorobiocin, derrubone, coumermycin A1 or MDCC; 5% DMSO); dimers to hexamer
[3] = target: the molecule itself; experiment: SEC + other: dynamic light scattering; Hsp90αC+ at 1.0 mg/ml and FL Hsp90α at 2.1 mg/ml for DLS, 20 mM HEPES pH 7.2, 150 mM NaCl, 25°C; without inhibitors
[4] = target: the molecule itself; experiment: crystal structure; MDCC-labelled Hsp90αMC crystallised in 0.1 M succinic acid pH 6.5, 12% PEG 3350, 20 mM calcium chloride; 3.5 Å; hexamer through crystallographic symmetry

B1: Hsp90α_293–699 (Hsp90αMC), middle and C-terminal domains of human Hsp90α (domain or fragment)
chain: not shown
notes: Hsp90α (90 kDa heat-shock protein alpha), human, residues 293-699 (middle and C-terminal domains); TEV site between the tag and the protein; also called Hsp90α MD and CTD; apo Hsp90αMC; source: E. coli, purified (Ni-NTA, TEV cleavage, second Ni-NTA, size-exclusion chromatography); not shown: 6xHis, N-terminal, cleaved
stoichiometry N [1]: 2
stoichiometry N [2]: 6

B2: Hsp90α_433–696 (Hsp90αC+) (domain or fragment)
chain: not shown
notes: Hsp90α, human, residues 433-696; The results speak of 'the CTD'; also called the CTD; source: E. coli, purified (same procedure as for Hsp90αMC); not shown: 6xHis, N-terminal, cleaved
stoichiometry N [3]: 4

B3: MDCC–Hsp90αMC (Hsp90α 293–699 covalently linked to MDCC at Cys374) (domain or fragment)
chain: not shown
modifications: MDCC {7-diethylamino-3-[N-(2-maleimidoethyl)carbamoyl]coumarin} covalently linked to Cys374
notes: Hsp90α, human, residues 293-699 (middle and C-terminal domains), labelled with MDCC at Cys374; Three molecules in the asymmetric unit; the hexamer is formed through crystallographic symmetry; also called MDCC-labeled Hsp90αMC; source: E. coli, purified; 0.2 mM Hsp90αMC incubated with 0.5 mM MDCC on ice for 30 min, supernatant used; not shown: 6xHis, N-terminal, cleaved
stoichiometry N [4]: 6

B4: Hsp90α_23–699_E47A (FL Hsp90α) (domain or fragment)
chain: not shown
notes: Hsp90α, human, residues 23-699 with E47A; N-terminal truncation (printed as Δ23) and C-terminal tail removed; also called full-length (FL) Hsp90α; source: E. coli, purified (same procedure as for Hsp90αMC); not shown: 6xHis, N-terminal, cleaved
stoichiometry N [3]: 6
